Test [1] addresses flotillin-associated rhodopsin from the marine SAG AG-319-B05 Pseudothioglobus (PsFAR) (Pseudothioglobus sp. (SAG AG-319-B05)). Nature of the test: cryo-EM structure.
Test [2] deals with proteorhodopsin from the marine SAG AG-319-B05 Pseudothioglobus (PsPR) (Pseudothioglobus sp. (SAG AG-319-B05)). In words: cryo-EM structure.

For “flotillin-associated rhodopsin from the marine SAG AG-319-B05 Pseudothioglobus (PsFAR) (natural protein)”, the stoichiometry N in test [1] was found to be 5. In test [2], “proteorhodopsin from the marine SAG AG-319-B05 Pseudothioglobus (PsPR) (natural protein)” had a stoichiometry N of 5.

For the origin of these results see doi:10.1101/2025.04.29.651185.
